In patent US20250073303A1, “TDP-43 Interference Peptides, Methods, and Uses Thereof” (The University of British Columbia, priority 2022, published 2025):

How the values were obtained:
TDP-43 = TDP-43 (Homo sapiens, UniProt Q13148); assay: Peptide blocking of TDP-43 phosphorylation and aggregation in HEK293 cells overexpressing pcDNA3.1-FLAG-CK1δ1-317 (western blotting); assay type: cell-based; set-up: Endogenous TDP-43 was highly phosphorylated by active CK-1δ (lacking its regulatory domain); endogenous in cells; host or cells: HEK293 cells transfected with pcDNA3.1-FLAG-CK1δ1-317; conditions: HEK293, CK1δ1-317 overexpression
TDP-43, sequence (Q13148 whole entry, the tested form may be a part): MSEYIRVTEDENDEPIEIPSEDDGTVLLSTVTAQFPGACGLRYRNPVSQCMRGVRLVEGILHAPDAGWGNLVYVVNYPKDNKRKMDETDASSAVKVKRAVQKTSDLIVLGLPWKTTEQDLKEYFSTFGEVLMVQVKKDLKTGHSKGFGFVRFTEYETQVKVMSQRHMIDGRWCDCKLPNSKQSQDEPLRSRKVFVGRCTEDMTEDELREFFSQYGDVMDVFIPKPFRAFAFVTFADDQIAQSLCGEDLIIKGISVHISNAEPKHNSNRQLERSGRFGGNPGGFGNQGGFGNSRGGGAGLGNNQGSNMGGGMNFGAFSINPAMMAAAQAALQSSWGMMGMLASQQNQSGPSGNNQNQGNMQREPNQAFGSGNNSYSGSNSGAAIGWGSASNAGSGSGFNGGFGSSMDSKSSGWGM
Procedure: Cell treatment and peptide blocking assay: Ethacrynic acid (EA) (Sigma, Saint Louis, MO) was dissolved in dimethyl sulfoxide (DMSO) at a stock concentration of 100 mM. For SH-SY5Y cells and HEK-293 cells, ethacrynic acid (EA) was added to the culture medium at 1:1000 to reach a final concentration of 100 μM. The treatment was maintained for 24 hours. For mouse cortical neurons, mature cortical neurons of 14 days in vitro (DIV) were used for experiments. Ethacrynic acid (EA) was added to neurons at a concentration of 20 μM for 5 hours. For peptide treatment in cell culture, the peptides were dissolved in double distilled water at a stock concentration of 10 mM and stored at −80° C. […] The primary cultured neurons were treated with peptide A, B, C and D mixture (equal concentration for each) at a final concentration of 5 μM and 10 μM.
The plasmids were transfected into HEK293 or SH-SY5Y cells using the Lipofectamine 2000 system. Before transfection, cells were plated at 80˜90% confluence and cultured in DMEM containing 10% fetal bovine serum (FBS). […]
Fractionation of cellular soluble and insoluble proteins: Cells or spinal cord tissue were harvested and lysed in 500 μl RIPA buffer [50 mM Tris-HCl pH 7.4; 150 mM NaCl; 1% NP-40; 0.5% Na-deoxycholate; 1 mM EDTA; 50 mM NaF; 1 mM PMSF and protease inhibitor] on ice. […] All the protein samples were further analyzed by Western immunoblotting. […]

SH-SY5Y cells = assay: MTT assay of SH-SY5Y cells with ethacrynic acid challenge; assay type: cell-based, human; conditions: ethacrynic acid treatment compared with the control group
Procedure: Cell treatment and peptide blocking assay: Ethacrynic acid (EA) (Sigma, Saint Louis, MO) was dissolved in dimethyl sulfoxide (DMSO) at a stock concentration of 100 mM. For SH-SY5Y cells and HEK-293 cells, ethacrynic acid (EA) was added to the culture medium at 1:1000 to reach a final concentration of 100 μM. The treatment was maintained for 24 hours. For mouse cortical neurons, mature cortical neurons of 14 days in vitro (DIV) were used for experiments. Ethacrynic acid (EA) was added to neurons at a concentration of 20 μM for 5 hours. For peptide treatment in cell culture, the peptides were dissolved in double distilled water at a stock concentration of 10 mM and stored at −80° C. The combination of peptides A, B, C and D at equal concentration of 5 μM for each peptide and 20 μM in total was added into cultures of SH-SY5Y cells or HEK-293 cells one hour before ethacrynic acid treatment or pcDNA3.1-FLAG-CK1δ1-317 transfection. […]
MTT assay: The cell viability of SH-SY5Y cells after treatment of Ethacrynic acid (EA) was determined using the MTT assay (Sigma, Saint Louis, MO). Briefly, MTT solution was added to cells for 3-4 hours at 37° C. at the time when the cell viability was determined. […] On the second day, the plate was shaken for 15 minutes in the dark and absorbance at OD=595 nm was read using a plate reader (Envision 2103 Multilabel Reader, Perkin Elmer).

Q: What does the source list for “ppTDP: peptide covering the T25 site and S403 site of TDP-43, with a linker sequence between the blocking sequences and a TAT sequence (YGRKKRRQRRRDGTVLLGGGGFGSSMDSKSSG)”?
A: TDP-43 phosphorylation in both the soluble fraction and insoluble fraction (TDP-43; 20 μM every 6 hours for a total of 48 hours): efficiently blocked; TDP-43 aggregation induced by CK1δ (TDP-43; 40 μM every 6 hours for a total of 48 hours, compared with 20 μM): did not block TDP-43 aggregation induced by CK1δ more effectively

Q: For `C=C(CC)C(=O)c1ccc(OCC(=O)O)c(Cl)c1Cl` [ethacrynic acid], which “cell death of SH-SY5Y cells” value (SH-SY5Y cells) is on record?
A: 69.97%
